# Measurements published in the supplement of paper PMC9112550, “Optimization of the antimicrobial peptide Bac7 by deep mutational scanning” (BMC Biology, 2022).
# Test system: Escherichia coli TOP10
# Test: shrunken log2 fold change of peptide-encoding DNA abundance (4.5 h post-induction vs induction); higher = less antimicrobial activity (less host growth inhibition)
# Details: time post-induction: 4.5 h; library: site-saturation at positions 5, 18, 19, 20
# 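Note: peptides expressed intracellularly from a pBAD plasmid library in pooled LB shake-flask culture, induced with 0.3% L-arabinose, DNA abundance read by NGS, three biological replicates, DESeq2 with apeglm shrinkage.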
row,Sequence,shrunken log2 fold change
1,RRIRYRPPRLPRPRPRPTIWPRP,-0.196
2,RRIRNRPPRLPRPRPRPFGGPRP,-0.133
3,RRIRPRPPRLPRPRPRPESQPRP,-0.0975
4,RRIRWRPPRLPRPRPRPSASPRP,0.363
5,RRIRDRPPRLPRPRPRPRQCPRP,-0.0309
6,RRIRWRPPRLPRPRPRPPWYPRP,-0.0946
7,RRIRPRPPRLPRPRPRPLWDPRP,0.00439
8,RRIRNRPPRLPRPRPRPFWLPRP,-0.189
9,RRIRRRPPRLPRPRPRPPRFPRP,1.17
10,RRIRERPPRLPRPRPRPGGFPRP,0.292
11,RRIRHRPPRLPRPRPRPSHTPRP,-0.248
12,RRIRPRPPRLPRPRPRPKFPPRP,0.119
13,RRIRLRPPRLPRPRPRPRKSPRP,0.376
14,RRIRERPPRLPRPRPRPISTPRP,-0.346
15,RRIRHRPPRLPRPRPRPRKAPRP,-0.0445
16,RRIRDRPPRLPRPRPRPNIVPRP,-0.0381
17,RRIRTRPPRLPRPRPRPALIPRP,0.0272
18,RRIRVRPPRLPRPRPRPDFCPRP,0.183
19,RRIRGRPPRLPRPRPRPFWHPRP,0.297
20,RRIRNRPPRLPRPRPRPAPSPRP,0.271

row,Sequence,shrunken log2 fold change
1,RRIRSRPPRLPRPRPRPFEYPRP,-0.115
2,RRIRIRPPRLPRPRPRPWPAPRP,-0.768
3,RRIRCRPPRLPRPRPRPIFVPRP,-0.284
4,RRIRNRPPRLPRPRPRPMNAPRP,-0.281
5,RRIRQRPPRLPRPRPRPNDRPRP,-0.16
6,RRIRIRPPRLPRPRPRPNFIPRP,-0.327
7,RRIRGRPPRLPRPRPRPPFCPRP,0.592
8,RRIRARPPRLPRPRPRPDKRPRP,0.109
9,RRIRWRPPRLPRPRPRPSAAPRP,0.921
10,RRIRNRPPRLPRPRPRPHGIPRP,-0.154
11,RRIRVRPPRLPRPRPRPPRAPRP,0.641
12,RRIRGRPPRLPRPRPRPHFTPRP,0.233
13,RRIRGRPPRLPRPRPRPDHTPRP,0.0269
14,RRIRCRPPRLPRPRPRPPFNPRP,-0.137
15,RRIRARPPRLPRPRPRPQANPRP,0.304
16,RRIRKRPPRLPRPRPRPYRDPRP,-0.0176
17,RRIRGRPPRLPRPRPRPILAPRP,0.492
18,RRIRTRPPRLPRPRPRPKDVPRP,-0.0302
19,RRIRGRPPRLPRPRPRPTCDPRP,0.432
20,RRIRFRPPRLPRPRPRPTRNPRP,0.184

row,Sequence,shrunken log2 fold change
1,RRIRARPPRLPRPRPRPWYYPRP,-0.628
2,RRIRHRPPRLPRPRPRPFDPPRP,-0.101
3,RRIRGRPPRLPRPRPRPWWDPRP,-0.145
4,RRIRTRPPRLPRPRPRPIPKPRP,0.103
5,RRIRGRPPRLPRPRPRPSCRPRP,0.417
6,RRIRFRPPRLPRPRPRPWETPRP,0.0299
7,RRIRIRPPRLPRPRPRPRYEPRP,-0.011
8,RRIRRRPPRLPRPRPRPNSLPRP,-0.652
9,RRIRQRPPRLPRPRPRPCSEPRP,-0.201
10,RRIRERPPRLPRPRPRPAMWPRP,0.293
11,RRIRNRPPRLPRPRPRPCLAPRP,-0.69
12,RRIRCRPPRLPRPRPRPWFCPRP,-0.177
13,RRIRARPPRLPRPRPRPRCLPRP,0.157
14,RRIRHRPPRLPRPRPRPDRSPRP,-0.0222
15,RRIRHRPPRLPRPRPRPEPVPRP,0.0556
16,RRIRKRPPRLPRPRPRPNKGPRP,0.0232
17,RRIRKRPPRLPRPRPRPPGKPRP,0.756
18,RRIRQRPPRLPRPRPRPECIPRP,-0.269
19,RRIRGRPPRLPRPRPRPHWWPRP,0.66
20,RRIRRRPPRLPRPRPRPELFPRP,1.06
